A short description of series [1]: dual luciferase reporter, HEPM. The following applies: glycan lost; control: MEIS2-WT in shOGT HEPM cells. For orientation: A reporter such as luciferase makes a cellular process visible.
The nature of series [2]: CHX chase, immunoblot, endogenous MEIS2 in HEPM. The conditions noted are these: control: DMSO. Background: A western blot detects proteins with antibodies after separation by electrophoresis.
A short description of series [3]: anti-MEIS2 or anti-HA IP, ubiquitin blot. The following applies: control: DMSO.
Series [4] in a line: Western blot of MEIS2 ± MG132, HEPM. The following applies: glycan lost; control: DMSO.

B1: MEIS2: S237A (protein)
parent chain: MAQRYDELPHYGGMDGVGVPASMYGDPHAPRPIPPVHHLNHGPPLHATQHYGAHAPHPNVMPASMGSAVNDALKRDKDAIYGHPLFPLLALVFEKCELATCTPREPGVAGGDVCSSDSFNEDIAVFAKQVRAEKPLFSSNPELDNLMIQAIQVLRFHLLELEKVHELCDNFCHRYISCLKGKMPIDLVIDERDGSSKSDHEELSGSSTNLADHNPSSWRDHDDATSTHSAGTPGPSSGGHASQSGDNSSEQGDGLDNSVASPGTGDDDDPDKDKKRQKKRGIFPKVATNIMRAWLFQHLTHPYPSEEQKKQLAQDTGLTILQVNNWFINARRRIVQPMIDQSNRAGFLLDPSVSQGAAYSPEGQPMGSFVLDGQQHMGIRPAGLQSMPGDYVSQGGPMGMSMAQPSYTPPQMTPHPTQLRHGPPMHSYLPSHPHHPAMMMHGGPPTHPGMTMSAQSPTMLNSVDPNVGGQVMDIHAQ
Take B1: the “other: transcriptional activation of promoter” value in series [1] was “decreases”.

B2: MEIS2: Thiamet G (protein)
parent chain: B1 parent chain
For the protein B2, the degradation_or_half_life entry in series [2] (glycan gained) is “increases”. For the same protein, the “other: ubiquitination” value in series [3] (glycan gained) is recorded as “decreases”.

B3: MEIS2: OSMI-1 (protein)
parent chain: B1 parent chain
Consider B3, for which the degradation_or_half_life result in series [2] (glycan lost) is given as “decreases”. The “other: ubiquitination” value in series [3] (glycan lost) was “increases”. The expression_or_secretion result in series [4] was “decreases”.
